Assay results taken from patent US20260207700A1, “MEDICAL PRODUCTS CONTAINING AN AQUEOUS FORMULATION OF A PEPTIDE” (LYTIX BIOPHARMA AS, priority 2022, published 2026).
Non-standard residues stand in square brackets, D forms with d. No end group written: not given here. Dip = N[C@H](C(=O)O)C(c1ccccc1)c1ccccc1

Key:
[1] = 20-30° C., protected from light; cited from earlier work
[2] = Purity/related substances after storage, HPLC, Example 1.3; format: physicochemical; conditions: 20 mg/mL in WFI
Description: (§1) Reversed phase HPLC, using a trifluoracetic acid (TFA) system and UV detection at 220 nm, was used to determine the amount of LTX-315 after storage of the vials in accordance with the storage conditions set out in Table 2.
(§2) The column used was an RP C18, e.g. Waters Sunfire, 3.5 μm, 4.6×150 mm. The LTX-315 concentration in the test sample solution was 0.5 mg/ml and the injection volume 10 μl. The gradient profile used is set out below and the flow rate was 1.2 mL/min.
(§3) Drug product was prepared and stored as described in Example 1.1.
HPLC analysis was performed as described in Example 1.2 to determine the concentration of LTX-315 and the amount of related substances, i.e. substances formed due to and thus related to the degradation of LTX-315 in the drug product.

[3] = LTX-315 concentration after storage, reversed phase HPLC UV 220 nm, Example 1.2; format: physicochemical; conditions: for LTX-315 concentration, Vial 1 / LTX-315 concentration, Vial 2 / Mean content / Rec./T = 0 / Rec./theory (percentage of theoretical 20 mg/mL): 20 mg/mL in WFI
Description: as §3, §1, §2

[4] = Appearance of LTX-315 drug product in sealed vials on storage (visual, Ph.Eur 2.9.20), Example 1.1; format: physicochemical
Description: (§4) • LTX-315=acetate salt of peptide with sequence K-K-W-W-K-K-W-Dip-K-NH2 20 mg/mL LTX-315 drug product was prepared by dissolving LTX-315 powder in WFI and filtered through a 0.22 μm sterile filter. 1 ml of the drug product was then filled into vials and sealed. The WFI complied to the Ph. Eur monograph 0169 for WFI. All product contact vials, glassware and peripherals were sterilised by depyrogenation in a hot air oven at 250° C. for 120 minutes after twice rinsing with WFI. Product contact tubing, stoppers and over-seals were twice rinsed with WFI then sterilised by autoclaving for >15 minutes at 121° C. then dried overnight in a drying oven. The vials were stored as set out in Table 1 below and analysed according to the listed parameters. Appearance was tested visually according to Ph.Eur 2.9.20 and osmolality according to Ph. Eur. 2.2.35. pH was tested according to Ph. Eur. 2.2.3. Colour and clarity were tested according to Ph. Eur 2.2.2 and Ph. Eur 2.2.1, respectively.

[5] = pH of LTX-315 drug product on storage (Ph. Eur. 2.2.3), Example 1.1; format: physicochemical; conditions: 20 mg/mL in WFI
Description: as §4

[6] = Osmolality of LTX-315 drug product on storage (Ph. Eur. 2.2.35), Example 1.1; format: physicochemical; conditions: 20 mg/mL in WFI
Description: as §4

C[C@@H](O)[C@@H]1NC(=O)[C@H](CCCCN)NC(=O)[C@@H](Cc2c[nH]c3ccccc23)NC(=O)[C@H](Cc2ccccc2)NC(=O)[C@@H](NC(=O)[C@H](N)Cc2ccccc2)CSSC[C@@H](C(=O)N[C@H](CO)[C@@H](C)O)NC1=O [octreotide]
Permitted storage time of liquid product [1]: up to 14 days

K-K-W-W-K-K-W-Dip-K-NH2 (KKWWKKW[Dip]K-NH2) [LTX-315]
Total related substances (sum of related substances >0.05%) ([2]; 2-8° C., 1 M): 1.31 area %
Total related substances (sum of related substances >0.05%) ([2]; 2-8° C., 3 M): 1.32 area %
Total related substances (sum of related substances >0.05%) ([2]; 2-8° C., 6 M): 0.98 area %
Total related substances (sum of related substances >0.05%) ([2]; 2-8° C., 9 M): 1.54 area %
Total related substances (sum of related substances >0.05%) ([2]; 2-8° C., 12 M): 1.34 area %
Total related substances (sum of related substances >0.05%) ([2]; 2-8° C., 18 M): 1.37 area %
Total related substances (sum of related substances >0.05%) ([2]; 2-8° C., 24 M): 1.64 area %
Total related substances (sum of related substances >0.05%) ([2]; 2-8° C., Initial (T = 0)): 0.88 area %
Total related substances (sum of related substances >0.05%) ([2]; 25° C./60% RH, 1 M): 1.55 area %
Total related substances (sum of related substances >0.05%) ([2]; 25° C./60% RH, 3 M): 1.97 area %
Total related substances (sum of related substances >0.05%) ([2]; 25° C./60% RH, 6 M): 2.31 area %
Total related substances (sum of related substances >0.05%) ([2]; 25° C./60% RH, Initial (T = 0)): 0.88 area %
LTX-315 concentration, Vial 1 ([3]; 2-8° C., T = 1 month): 20.548 mg/mL
LTX-315 concentration, Vial 2 ([3]; 2-8° C., T = 1 month): 19.916 mg/mL
Mean content ([3]; 2-8° C., T = 1 month): 20.2 mg/mL
Rec./T = 0 ([3]; 2-8° C., T = 1 month): 96.3%
Rec./theory (percentage of theoretical 20 mg/mL) ([3]; 2-8° C., T = 1 month): 101.2%
LTX-315 concentration, Vial 1 ([3]; 2-8° C., T = 3 months): 21.241 mg/mL
LTX-315 concentration, Vial 2 ([3]; 2-8° C., T = 3 months): 21.276 mg/mL
Mean content ([3]; 2-8° C., T = 3 months): 21.2 mg/mL
Rec./T = 0 ([3]; 2-8° C., T = 3 months): 101.1%
Rec./theory (percentage of theoretical 20 mg/mL) ([3]; 2-8° C., T = 3 months): 106.3%
LTX-315 concentration, Vial 1 ([3]; 2-8° C., T = 6 months): 20.979 mg/mL
LTX-315 concentration, Vial 2 ([3]; 2-8° C., T = 6 months): 21.027 mg/mL
Mean content ([3]; 2-8° C., T = 6 months): 21.0 mg/mL
Rec./T = 0 ([3]; 2-8° C., T = 6 months): 99.9%
Rec./theory (percentage of theoretical 20 mg/mL) ([3]; 2-8° C., T = 6 months): 105.0%
LTX-315 concentration, Vial 1 ([3]; 2-8° C., T = 9 months): 20.311 mg/mL
LTX-315 concentration, Vial 2 ([3]; 2-8° C., T = 9 months): 20.631 mg/mL
Mean content ([3]; 2-8° C., T = 9 months): 20.4 mg/mL
Rec./T = 0 ([3]; 2-8° C., T = 9 months): 97.4%
Rec./theory (percentage of theoretical 20 mg/mL) ([3]; 2-8° C., T = 9 months): 102.4%
LTX-315 concentration, Vial 1 ([3]; 2-8° C., T = 12 months): 20.895 mg/mL
LTX-315 concentration, Vial 2 ([3]; 2-8° C., T = 12 months): 20.631 mg/mL
Mean content ([3]; 2-8° C., T = 12 months): 20.7 mg/mL
Rec./T = 0 ([3]; 2-8° C., T = 12 months): 98.8%
Rec./theory (percentage of theoretical 20 mg/mL) ([3]; 2-8° C., T = 12 months): 103.8%
LTX-315 concentration, Vial 1 ([3]; 2-8° C., T = 18 months): 19.204 mg/mL
LTX-315 concentration, Vial 2 ([3]; 2-8° C., T = 18 months): 19.990 mg/mL
Mean content ([3]; 2-8° C., T = 18 months): 19.6 mg/mL
Rec./T = 0 ([3]; 2-8° C., T = 18 months): 93.2%
Rec./theory (percentage of theoretical 20 mg/mL) ([3]; 2-8° C., T = 18 months): 98.0%
LTX-315 concentration, Vial 1 ([3]; 2-8° C., T = 24 months): 20.150 mg/mL
LTX-315 concentration, Vial 2 ([3]; 2-8° C., T = 24 months): 19.669 mg/mL
Mean content ([3]; 2-8° C., T = 24 months): 19.9 mg/mL
Rec./T = 0 ([3]; 2-8° C., T = 24 months): 94.7%
Rec./theory (percentage of theoretical 20 mg/mL) ([3]; 2-8° C., T = 24 months): 99.5%
LTX-315 concentration, Vial 1 ([3]; 25° C./60% RH, T = 1 month): 20.269 mg/mL
LTX-315 concentration, Vial 2 ([3]; 25° C./60% RH, T = 1 month): 20.194 mg/mL
Mean content ([3]; 25° C./60% RH, T = 1 month): 20.2 mg/mL
Rec./T = 0 ([3]; 25° C./60% RH, T = 1 month): 96.2%
Rec./theory (percentage of theoretical 20 mg/mL) ([3]; 25° C./60% RH, T = 1 month): 101.2%
LTX-315 concentration, Vial 1 ([3]; 25° C./60% RH, T = 3 months): 20.897 mg/mL
LTX-315 concentration, Vial 2 ([3]; 25° C./60% RH, T = 3 months): 20.222 mg/mL
Mean content ([3]; 25° C./60% RH, T = 3 months): 20.5 mg/mL
Rec./T = 0 ([3]; 25° C./60% RH, T = 3 months): 97.8%
Rec./theory (percentage of theoretical 20 mg/mL) ([3]; 25° C./60% RH, T = 3 months): 102.8%
LTX-315 concentration, Vial 1 ([3]; 25° C./60% RH, T = 6 months): 20.575 mg/mL
LTX-315 concentration, Vial 2 ([3]; 25° C./60% RH, T = 6 months): 20.215 mg/mL
Mean content ([3]; 25° C./60% RH, T = 6 months): 20.3 mg/mL
Rec./T = 0 ([3]; 25° C./60% RH, T = 6 months): 97.0%
Rec./theory (percentage of theoretical 20 mg/mL) ([3]; 25° C./60% RH, T = 6 months): 102.0%
LTX-315 concentration, Vial 1 ([3]; Initial (T = 0)): 21.068 mg/mL
LTX-315 concentration, Vial 2 ([3]; Initial (T = 0)): 20.978 mg/mL
Mean content ([3]; Initial (T = 0)): 21.0 mg/mL
Rec./theory (percentage of theoretical 20 mg/mL) ([3]; Initial (T = 0)): 105.1%
Change in LTX-315 concentration ([3]; 2-8° C., 24 months): very slight decrease
Concentration of LTX-315 versus T=0 ([3]; 25° C. with 60% relative humidity, six months): the same as the concentration at T=0
Change in appearance, osmolality, pH, colour and clarity ([4]; 6 months at 25° C. with 60% RH in the dark): no change
Change in appearance, osmolality, pH, colour and clarity ([4]; 24 months in the dark at 2-8° C.): no change
pH ([5]; 2-8° C., T = 3 months): 6.2
pH ([5]; 2-8° C., T = 6 months): 6.0
pH ([5]; 2-8° C., T = 12 months): 6.1
pH ([5]; 2-8° C., T = 24 months): 6.1
pH ([5]; 25° C./60% RH, T = 3 months): 6.2
pH ([5]; 25° C./60% RH, T = 6 months): 6.1
pH ([5]; Initial (T = 0)): 6.1
Osmolality ([6]; 2-8° C., T = 6 months): 133 mOsmkg^−1
Osmolality ([6]; 2-8° C., T = 12 months): 133 mOsmkg^−1
Osmolality ([6]; 2-8° C., T = 24 months): 132 mOsmkg^−1
Osmolality ([6]; 25° C./60% RH, T = 6 months): 133 mOsmkg^−1
Osmolality ([6]; Initial (T = 0)): 132 mOsmkg^−1
